Patent publication US20140349405, “RNA-DIRECTED DNA CLEAVAGE AND GENE EDITING BY CAS9 ENZYME FROM NEISSERIA MENINGITIDIS” (WISCONSIN ALUMNI RESEARCH FOUNDATION, published 2014)
Where a chain is given by its changes, count along the chain named.

B1: Neisseria CRISPR repeat promoter wt (dsDNA)
DNA 1: GTTGTAGCTCCCTTTCTCATTTCGCAGTGCTACAAT
DNA 2: ATTGTAGCACTGCGAAATGAGAAAGGGAGCTACAAC
B2: Neisseria CRISPR repeat promoter mut (dsDNA)
DNA 1: B1 DNA 1 with T31C, A32C
DNA 2: B1 DNA 2 with T5G, A6G
modifications: [31-32]

Tests used:
[1] = biological target: T1, RNA polymerase sigma70 holoenzyme (Escherichia coli, UniProt P0A7Z4;P0A8V2;P0A8T7;P0A800;P00579 …); assay: in vitro transcription, 168 nt product; 10 mM Mg, 100 mM KCl, 37 C; settings: tags: Epicentre, sigma-saturated; chain copies: 2,1,1,1,1
T1 sequence (P0A7Z4 whole entry, chain 1 of 4): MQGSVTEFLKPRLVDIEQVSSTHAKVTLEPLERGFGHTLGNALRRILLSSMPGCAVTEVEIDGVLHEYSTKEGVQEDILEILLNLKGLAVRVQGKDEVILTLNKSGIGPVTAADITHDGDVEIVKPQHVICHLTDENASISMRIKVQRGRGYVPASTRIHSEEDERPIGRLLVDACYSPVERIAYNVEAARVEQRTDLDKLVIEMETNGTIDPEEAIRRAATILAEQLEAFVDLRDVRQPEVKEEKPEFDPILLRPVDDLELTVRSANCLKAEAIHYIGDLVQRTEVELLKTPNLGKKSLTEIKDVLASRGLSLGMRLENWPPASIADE
T1 sequence (P0A8V2 whole entry, chain 2 of 4): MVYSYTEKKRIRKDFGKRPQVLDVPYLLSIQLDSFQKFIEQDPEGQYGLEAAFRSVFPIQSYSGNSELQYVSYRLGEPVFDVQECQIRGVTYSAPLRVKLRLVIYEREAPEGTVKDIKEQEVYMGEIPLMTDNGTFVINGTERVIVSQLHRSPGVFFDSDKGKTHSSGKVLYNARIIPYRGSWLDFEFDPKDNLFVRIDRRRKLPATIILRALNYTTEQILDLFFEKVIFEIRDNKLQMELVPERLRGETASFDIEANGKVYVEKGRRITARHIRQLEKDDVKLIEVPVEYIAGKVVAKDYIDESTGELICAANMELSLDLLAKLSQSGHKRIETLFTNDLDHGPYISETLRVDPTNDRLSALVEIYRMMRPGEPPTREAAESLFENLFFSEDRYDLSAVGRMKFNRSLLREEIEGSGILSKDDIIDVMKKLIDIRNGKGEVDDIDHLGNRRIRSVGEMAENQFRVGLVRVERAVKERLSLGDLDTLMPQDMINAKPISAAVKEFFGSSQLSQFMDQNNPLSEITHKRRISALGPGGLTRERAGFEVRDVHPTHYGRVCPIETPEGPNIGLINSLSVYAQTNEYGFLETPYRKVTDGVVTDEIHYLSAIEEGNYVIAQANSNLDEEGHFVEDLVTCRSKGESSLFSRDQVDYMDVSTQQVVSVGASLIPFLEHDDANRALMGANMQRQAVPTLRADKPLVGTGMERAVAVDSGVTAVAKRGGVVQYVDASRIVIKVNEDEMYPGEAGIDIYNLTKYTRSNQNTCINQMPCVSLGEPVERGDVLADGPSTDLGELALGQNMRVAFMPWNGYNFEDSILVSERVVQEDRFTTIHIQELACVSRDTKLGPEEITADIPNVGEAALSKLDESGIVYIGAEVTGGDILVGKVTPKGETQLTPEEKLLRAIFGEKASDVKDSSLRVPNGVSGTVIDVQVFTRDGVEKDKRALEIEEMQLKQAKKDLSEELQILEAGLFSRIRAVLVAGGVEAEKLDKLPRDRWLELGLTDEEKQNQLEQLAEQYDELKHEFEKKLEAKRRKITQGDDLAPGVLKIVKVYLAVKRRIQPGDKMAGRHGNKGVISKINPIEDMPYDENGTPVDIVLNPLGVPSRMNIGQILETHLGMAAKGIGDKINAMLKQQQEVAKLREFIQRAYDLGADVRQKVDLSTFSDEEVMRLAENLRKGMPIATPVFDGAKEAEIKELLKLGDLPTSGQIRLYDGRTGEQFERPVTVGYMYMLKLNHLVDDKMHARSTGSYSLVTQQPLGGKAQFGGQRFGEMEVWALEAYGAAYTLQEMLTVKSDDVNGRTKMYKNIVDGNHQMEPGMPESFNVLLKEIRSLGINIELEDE
T1 sequence (P0A800 2-91, chain 4 of 4): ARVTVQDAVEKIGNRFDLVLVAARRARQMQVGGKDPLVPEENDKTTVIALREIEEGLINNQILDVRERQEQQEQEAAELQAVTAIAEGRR
T1 sequence (P00579 whole entry, chain 5 of 4): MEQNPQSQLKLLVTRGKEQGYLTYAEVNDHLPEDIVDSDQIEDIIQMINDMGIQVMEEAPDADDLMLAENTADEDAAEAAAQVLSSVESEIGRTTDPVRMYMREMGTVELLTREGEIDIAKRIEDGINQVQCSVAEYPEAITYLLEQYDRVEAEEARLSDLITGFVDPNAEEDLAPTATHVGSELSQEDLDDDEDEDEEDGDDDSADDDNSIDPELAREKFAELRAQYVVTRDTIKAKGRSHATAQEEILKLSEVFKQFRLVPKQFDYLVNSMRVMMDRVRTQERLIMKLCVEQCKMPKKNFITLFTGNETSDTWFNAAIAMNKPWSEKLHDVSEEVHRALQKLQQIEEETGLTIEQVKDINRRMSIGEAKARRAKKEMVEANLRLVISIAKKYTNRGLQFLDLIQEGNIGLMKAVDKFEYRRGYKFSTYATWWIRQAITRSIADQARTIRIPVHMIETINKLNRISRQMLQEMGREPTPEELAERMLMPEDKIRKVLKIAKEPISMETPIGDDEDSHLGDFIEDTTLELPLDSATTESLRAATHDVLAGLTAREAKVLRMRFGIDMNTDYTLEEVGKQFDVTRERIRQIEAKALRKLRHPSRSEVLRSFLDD

[2] = biological target: T1, RNA polymerase sigma70 holoenzyme; assay: in vitro transcription, no transcript; settings: tags: Epicentre, sigma-saturated; chain copies: 2,1,1,1,1

| Binder | binding result [1] | binding result [2] |
| --- | --- | --- |
| B1 | binds | – |
| B2 | – | no binding |
